# Measurements published in patent US7662633B2, “Method of screening for inhibitors of osteopontin” (GlaxoSmithKline LLC, priority 2000, dated 2010).
# Ends that are not written are not given here.
# Assays:
# Assay type in all cases: cell-based
# α4β7 = target: T1, α4β7 (Homo sapiens, UniProt P13612+P26010); experiment: α4β7 adhesion assay: RPMI8866 cell adhesion to zz-MAdCAM; conditions: for Relative potency compared to parent peptide SVVYGLR against α4β7 (RPMI8866 adhesion to zz-MAdCAM): SVVYGLR peptide with the residue mutated to alanine; for Inhibition of RPMI8866 cell adhesion to zz-MAdCAM by synthetic peptide: varying peptide concentrations, 20 min 37° C.
# T1 construct: RPMI8866 cells which express α4β7, and small amounts of α4β1 and α5β1 were used; endogenous in cells; host or cells: RPMI8866 cells
# T1 sequence (P13612 34-1032): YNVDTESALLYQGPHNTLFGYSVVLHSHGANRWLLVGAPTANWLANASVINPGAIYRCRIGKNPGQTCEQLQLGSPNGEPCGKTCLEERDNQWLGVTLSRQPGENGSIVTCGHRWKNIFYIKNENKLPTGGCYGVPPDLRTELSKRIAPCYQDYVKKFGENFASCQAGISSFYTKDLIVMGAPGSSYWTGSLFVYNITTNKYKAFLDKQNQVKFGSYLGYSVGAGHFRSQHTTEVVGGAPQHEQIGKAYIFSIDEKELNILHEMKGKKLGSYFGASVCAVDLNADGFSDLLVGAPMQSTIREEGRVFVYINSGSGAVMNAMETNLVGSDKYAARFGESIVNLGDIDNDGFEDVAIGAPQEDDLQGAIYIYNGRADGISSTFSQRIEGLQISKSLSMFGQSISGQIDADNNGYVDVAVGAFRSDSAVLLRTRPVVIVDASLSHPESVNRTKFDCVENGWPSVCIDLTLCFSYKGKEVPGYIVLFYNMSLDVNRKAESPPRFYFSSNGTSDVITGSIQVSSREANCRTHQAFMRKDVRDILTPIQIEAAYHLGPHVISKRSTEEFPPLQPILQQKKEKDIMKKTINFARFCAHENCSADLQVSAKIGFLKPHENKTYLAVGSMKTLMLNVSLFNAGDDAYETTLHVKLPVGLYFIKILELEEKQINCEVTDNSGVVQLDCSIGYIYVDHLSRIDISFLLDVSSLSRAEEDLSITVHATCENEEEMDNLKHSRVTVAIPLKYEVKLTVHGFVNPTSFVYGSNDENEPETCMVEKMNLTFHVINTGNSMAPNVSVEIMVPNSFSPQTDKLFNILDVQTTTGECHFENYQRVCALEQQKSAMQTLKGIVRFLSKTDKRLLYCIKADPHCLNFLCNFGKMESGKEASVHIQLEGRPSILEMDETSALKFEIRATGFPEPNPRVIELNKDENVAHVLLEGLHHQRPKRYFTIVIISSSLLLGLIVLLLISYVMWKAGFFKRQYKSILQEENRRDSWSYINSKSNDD
# T1 sequence (P26010 20-798): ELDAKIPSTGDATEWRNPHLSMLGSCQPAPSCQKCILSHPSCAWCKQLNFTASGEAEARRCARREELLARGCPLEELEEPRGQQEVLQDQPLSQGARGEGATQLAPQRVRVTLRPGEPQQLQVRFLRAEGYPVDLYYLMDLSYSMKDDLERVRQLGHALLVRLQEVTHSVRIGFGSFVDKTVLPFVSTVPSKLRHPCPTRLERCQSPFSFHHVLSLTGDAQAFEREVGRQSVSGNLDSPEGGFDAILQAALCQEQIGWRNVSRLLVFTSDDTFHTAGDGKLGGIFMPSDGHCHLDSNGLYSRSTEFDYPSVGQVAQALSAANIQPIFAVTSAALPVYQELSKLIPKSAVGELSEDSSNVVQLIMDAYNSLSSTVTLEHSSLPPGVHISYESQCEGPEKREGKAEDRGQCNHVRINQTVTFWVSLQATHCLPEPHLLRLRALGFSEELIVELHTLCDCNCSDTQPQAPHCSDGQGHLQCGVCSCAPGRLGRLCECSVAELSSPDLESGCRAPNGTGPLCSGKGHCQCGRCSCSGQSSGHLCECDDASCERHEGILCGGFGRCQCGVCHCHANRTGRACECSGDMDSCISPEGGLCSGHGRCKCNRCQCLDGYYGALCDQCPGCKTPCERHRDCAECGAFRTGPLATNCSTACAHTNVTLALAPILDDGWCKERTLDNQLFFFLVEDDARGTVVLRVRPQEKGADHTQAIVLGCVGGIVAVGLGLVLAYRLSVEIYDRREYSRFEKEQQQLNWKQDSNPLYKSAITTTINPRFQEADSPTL
# Description: The recombinant zz-MAdCAM was absorbed onto Maxisorp plate pre-coated for 2.5 hours at 37° C. with 100 μL of human IgG, and then washed twice with PBS. For capture the recombinant zz-MAdCAM was diluted to the appropriate concentration in 3% BSA/PBS, 100 μl added to each well, and incubated overnight at 4° C. Prior to use plates were washed twice in PBS.
# For the α4β7 adhesion assay RPMI8866 cells were washed in cation free HBSS supplemented with 1 mM EDTA, pelleted and labelled by incubating with BCECF (Molecular Probes) in cation-free HBSS at 37° C. for 10 minutes. At this stage cells were also co-incubated with […] human IgG to block endogenous Fc receptors. Cells were then washed once more in cation-free HBSS and then used in the adhesion assay at a final concentration of 3×10^6 cells ml^−1 in the presence of the appropriate treatment as indicated. To prevent cells clumping the assay plate was finally centrifuged at 400 rpm for 3 minutes without the brake. Cells were then incubated for 20 minutes at 37° C. and then washed twice in PBS before reading directly in a plate reader. For antibody inhibition studies the cells were preincubated with the appropriate antibody at […] for 5 minutes at room temperature prior to being placed in the incubator.
# α4β1 [1] = experiment: J6 cell adhesion to GST-CS-1 (CS-1 fragment of fibronectin); conditions: J6/CS-1 versus RPMI8866/zz-MAdCAM
# Description: (§1) All proteins were coated onto MAXISORP plates (Nunc) overnight at 4° C. Each protein was diluted in PBS at the concentrations indicated, and a total volume of 100 μl added per well. Plates were washed twice in PBS then blocked with 3% BSA/PBS for 1 hr at 37° C., and finally washed twice in PBS. Routinely HL60 cells were pelleted and washed once in HBSS (Sigma) then spread in 25 mM Hepes 7.5, HBSS at 2×10^6 ml^−1 (100 μl per well) in the presence of 0.2 mM MnCl2 and 50 ng/ml TPA, with other additions as indicated. J6 cells were likewise pelleted and washed once in HBSS (Sigma) then spread in 25 mM Hepes (pH7.5), HBSS at 2×10^6ml^−1 (100 μl per well) in the presence of 0.2 mM MnCl2 and other additions as indicated. For antibody inhibition cells were preincubated with the antibody (10 μg/ml) on ice for 10 minutes. Cells were then allowed to attach for 35 minutes at 37° C., washed twice in PBS, once in ethanol, and fixed in ethanol for 20 minutes at room temperature. For quantitation cells were visualised by staining with 0.1% crystal violet (Sigma) for 10 minutes then lysed in 0.5% TRITON X-100 (Sigma) and read at 570 nm in a Wallac Victor plate reader.
# α4β1 [2] = target: T2, α4β1 (Homo sapiens, UniProt P05556+P13612); experiment: as above; conditions: for Relative potency compared to parent peptide SVVYGLR against α4β1 (J6 adhesion to GST-CS-1): SVVYGLR peptide with the residue mutated to alanine; for Inhibition of J6 cell adhesion to GST-CS-1 by synthetic peptide (α4β1-CS-1 interaction): varying peptide concentrations, 35 min 37° C.
# T2 construct: Of the integrins analysed J6 express only α5β1 and α4βwhile HL60 express α4β1 and α5β1 and αLβ2; endogenous in cells; host or cells: J6 cells
# Description: as §1
# α4β1 [3] = target: T2, α4β1; experiment: J6 cell adhesion to GST fusion proteins of osteopontin (OPN); conditions: 0.2 mM MnCl2, 35 min 37° C.
# Description: as §1
# T2 sequence (P05556 21-798, one chain of several): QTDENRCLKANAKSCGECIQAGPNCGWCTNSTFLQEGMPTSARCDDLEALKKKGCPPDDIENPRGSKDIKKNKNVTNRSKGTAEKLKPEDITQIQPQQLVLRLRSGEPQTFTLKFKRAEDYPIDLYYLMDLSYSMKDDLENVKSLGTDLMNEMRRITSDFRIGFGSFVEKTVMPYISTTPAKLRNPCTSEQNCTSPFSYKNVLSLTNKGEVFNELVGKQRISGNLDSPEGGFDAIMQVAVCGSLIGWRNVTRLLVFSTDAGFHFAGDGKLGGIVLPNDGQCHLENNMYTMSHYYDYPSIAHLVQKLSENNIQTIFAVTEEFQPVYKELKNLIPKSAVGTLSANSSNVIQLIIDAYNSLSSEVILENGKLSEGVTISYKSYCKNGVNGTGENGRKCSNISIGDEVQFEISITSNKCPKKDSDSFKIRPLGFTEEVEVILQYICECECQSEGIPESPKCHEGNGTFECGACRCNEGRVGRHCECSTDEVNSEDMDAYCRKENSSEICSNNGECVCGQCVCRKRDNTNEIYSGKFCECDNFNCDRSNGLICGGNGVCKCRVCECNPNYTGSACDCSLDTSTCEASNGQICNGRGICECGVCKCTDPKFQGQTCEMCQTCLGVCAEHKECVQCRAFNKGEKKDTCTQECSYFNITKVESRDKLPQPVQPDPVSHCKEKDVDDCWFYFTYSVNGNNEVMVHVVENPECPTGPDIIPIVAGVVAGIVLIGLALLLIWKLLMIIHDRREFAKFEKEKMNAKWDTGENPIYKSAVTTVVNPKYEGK
substance,measurement,setting,value
"Arg168: SVVYGLR synthetic peptide in which Arg168 is mutated to alanine (SVVYGLA; SVVYGLR peptide; UniProt P10451 162-168, looked up, variant R168A)",Relative potency compared to parent peptide SVVYGLR against α4β7 (RPMI8866 adhesion to zz-MAdCAM),α4β7,less potent
same,Selectivity between α4β1 and α4β7 on mutating the residue,α4β1 [1],introduces a degree of selectivity
same,Relative potency compared to parent peptide SVVYGLR against α4β1 (J6 adhesion to GST-CS-1),α4β1 [2],more potent
FPTDLPA (listed as Homo sapiens) [synthetic peptide of OPN aa136-142],Inhibition of J6 cell binding to CS-1 over the scrambled control at lower matrix concentrations,"α4β1 [2]; lower matrix concentrations, data not shown",weak inhibition
same,Inhibition of J6 cell adhesion to GST-CS-1 by synthetic peptide (α4β1-CS-1 interaction),α4β1 [2],unable to inhibit binding to CS-1
"GRVLYSV (Synthesized and/or Homo sapiens) [scrambled control peptide of SVVYGLR, reference compound]",Inhibition of RPMI8866 cell adhesion to zz-MAdCAM by synthetic peptide,α4β7,no effect
"Gly166: SVVYGLR synthetic peptide in which Gly166 is mutated to alanine (SVVYALR; SVVYGLR peptide; UniProt P10451 162-168, looked up, variant G166A)",Selectivity between α4β1 and α4β7 on mutating the residue,α4β1 [1],introduces a degree of selectivity
"Leu167: SVVYGLR synthetic peptide in which Leu167 is mutated to alanine (SVVYGAR; SVVYGLR peptide; UniProt P10451 162-168, looked up, variant L167A)",Relative potency compared to parent peptide SVVYGLR against α4β7 (RPMI8866 adhesion to zz-MAdCAM),α4β7,relative potency similar to that observed with the blocked peptide
same,Relative potency compared to parent peptide SVVYGLR against α4β1 (J6 adhesion to GST-CS-1),α4β1 [2],relative potency similar to that observed with the blocked peptide
"SVVYGLR (VARIANT 2 The carboxy terminal end can be, for example COO-, COOH, or CONH2, see specification, for example Figures 10, 11, and 13; listed as Homo sapiens) [synthetic peptide of OPN aa162-168]",Inhibition of RPMI8866 cell adhesion to zz-MAdCAM by synthetic peptide,α4β7,inhibited adhesion
same,Potency at blocking J6 adhesion to CS-1 compared with the CS-1 peptide itself,α4β1 [2],only slightly less potent
same,Inhibition of J6 cell adhesion to GST-CS-1 by synthetic peptide (α4β1-CS-1 interaction),α4β1 [2],blocked adhesion to CS-1
"SVVYGLR-CONH2 (SVVYGLR-NH2; listed as Homo sapiens) [SVVYGLR (SEQ ID NO: 4)-CONH2, capped peptide lacking the acidic carboxy terminus]",Inhibition of RPMI8866 cell adhesion to zz-MAdCAM by synthetic peptide,α4β7,abrogated the ability
same,Inhibition of J6 cell adhesion to GST-CS-1 by synthetic peptide (α4β1-CS-1 interaction),α4β1 [2],abrogated the ability
"Tyr165: SVVYGLR synthetic peptide in which Tyr165 is mutated to alanine (SVVAGLR; SVVYGLR peptide; UniProt P10451 162-168, looked up, variant Y165A)",Relative potency compared to parent peptide SVVYGLR against α4β7 (RPMI8866 adhesion to zz-MAdCAM),α4β7,reduced the potency
same,Relative potency compared to parent peptide SVVYGLR against α4β1 (J6 adhesion to GST-CS-1),α4β1 [2],reduced the potency
"Val163: SVVYGLR synthetic peptide in which Val163 is mutated to alanine (SAVYGLR; SVVYGLR peptide; UniProt P10451 162-168, looked up, variant V163A)",Relative potency compared to parent peptide SVVYGLR against α4β7 (RPMI8866 adhesion to zz-MAdCAM),α4β7,reduced the potency
same,Relative potency compared to parent peptide SVVYGLR against α4β1 (J6 adhesion to GST-CS-1),α4β1 [2],reduced the potency
"Val164: SVVYGLR synthetic peptide in which Val164 is mutated to alanine (SVAYGLR; SVVYGLR peptide; UniProt P10451 162-168, looked up, variant V164A)",Relative potency compared to parent peptide SVVYGLR against α4β7 (RPMI8866 adhesion to zz-MAdCAM),α4β7,minor contribution to binding
same,Relative potency compared to parent peptide SVVYGLR against α4β1 (J6 adhesion to GST-CS-1),α4β1 [2],minor contribution to binding
aa17-168: GST fusion protein representing the thrombin cleaved fragment of OPN,Ability of coated GST-OPN fusion protein to support J6 cell adhesion,α4β1 [3],adhered
aa17-168RAD: GST fusion of thrombin cleaved OPN fragment with RGD motif mutated to RAD,Ability of coated GST-OPN fusion protein to support J6 cell adhesion,α4β1 [3],did not affect binding
aa17-314: GST fusion protein representing full length human OPN,Ability of coated GST-OPN fusion protein to support J6 cell adhesion,α4β1 [3],adhered
"aa115-168: GST fusion, N-terminal deletion of the thrombin cleaved OPN fragment",Ability of coated GST-OPN fusion protein to support J6 cell adhesion,α4β1 [3],bound
"aa125-168: GST fusion, N-terminal deletion of the thrombin cleaved OPN fragment",Ability of coated GST-OPN fusion protein to support J6 cell adhesion,α4β1 [3],bound
"aa132-146: GST fusion protein of OPN aa132-146 (LVTDFPTDLPATEVF; also: GST fusion protein; UniProt P10451 132-146, looked up, fragment)",Ability of coated GST-OPN fusion protein to support J6 cell adhesion,α4β1 [3],supported J6 cell adhesion
"aa153-168: GST fusion protein of OPN aa153-168, Gly of RGD mutated to Ala (VDTYDGRADSVVYGLR; also: GST fusion protein)",Ability of coated GST-OPN fusion protein to support J6 cell adhesion,α4β1 [3],supported J6 cell adhesion
